Target: the molecule itself
Test: crystal structure; in meso (lipidic cubic phase, 9:1 monoolein:cholesterol); Rat-KMO with compound 3 (and NADPH) or compound 4; 3.0 Å

B1: full-length Rattus norvegicus kynurenine 3-monooxygenase (Rat-KMO), crystallisation construct (enzyme, Rattus norvegicus (rat), UniProt O88867 1-478, looked up)
chain: MASSDTEGKRVVVIGGGLVGALNACFLAKRNFQVDVYEAREDIRVANFMRGRSINLALSYRGRQALKAVGLEDQIVSKGVPMKARMIHSLSGKKSAIPYGNKSQYILSISREKLNKDLLTAVESYPNAKVHFGHKLSKCCPEEGILTMLGPNKVPRDITCDLIVGCDGAYSTVRAHLMKKPRFDYSQQYIPHGYMELTIPPKNGEYAMEPNCLHIWPRNAFMMIALPNMDKSFTCTLFMSFEEFEKLPTHSDVLDFFQKNFPDAIPLMGEQALMRDFFLLPAQPMISVKCSPFHLKSRCVLMGDAAHAIVPFFGQGMNAGFEDCLVFDELMDKFNNDLSVCLPEFSRFRIPDDHAISDLSMYNYIEMRAHVNSRWFLFQRLLDKFLHALMPSTFIPLYTMVAFTRIRYHEAVLRWHWQKKVINRGLFVLGSLVAIGSAYILVHHLSPRPLELLRSAWTGTSGHWNRSADISPRVPWSH
notes: thrombin site between GST and the N-terminus, TEV site before the C-terminal FLAG tag; C-terminus disordered from H443 in the structure; crystallised in meso with compound 3 or compound 4; No TEV cleavage is described; Treated with N-Glycosidase F; also called full-length KMO (1-478); not shown: GST, N-terminal, cleaved
- stoichiometry N: 2

Source: paper PMC7862291, “Full-length in meso structure and mechanism of rat kynurenine 3-monooxygenase inhibition” (Communications Biology, 2021)
